Data taken from patent US20190112392A1.
Residue numbers refer to the chain shown, from its start.

B1: T017000038 (bispecific antibody)
chain: EVQLVESGGGLVQPGGSLRLSCAASGEIGRINFYRWYRQAPGNQREVVATITIADKTDYADSAKGRFTISRDESRNMVYLQMSSLKPEDTAVYFCHAGSRLYPYDYWGQGTLVTVSSGGGGSGGGGSGGGGSGGGGSGGGGSGGGGSGGGGSEVQLVESGGGLVQPGGSLRLSCTFSGGTFSSYTMGWFRQAPGKEREFVAEVRWGGVTTYSNSLKDRFSISEDSVKNAVYLQMNSLKPEDTAVYYCAAVRQMYMTVVPDYWGQGTLVTVSSGAADYKDHDGDYKDHDIDYKDDDDKGAAHHHHHH
B2: T0170061G01 (VHH, not shown: small tags and cut ends)
VHH: EVQLVESGGGLVQPGGSLRLSCAASGEIGRINFYRWYRQAPGNQREVVATITIADKTDYADSAKGRFTISRDESRNMVYLQMSSLKPEDTAVYFCHAGSRLYPYDYWGQGTQVTVSS
B3: T017000068 (bispecific antibody)
chain: EVQLVESGGGLVQPGGSLRLSCTFSGGTFSSYTMGWFRQAPGKEREFVAEVRWGGVTTYSNSLKDRFSISEDSVKNAVYLQMNSLKPEDTAVYYCAAVRQMYMTVVPDYWGQGTLVTVSSGGGGSGGGGSGGGGSGGGGSGGGGSGGGGSGGGGSEVQLVESGGGLVQPGGSLRLSCITSGETFKINIWGWYRQAPGKQRELVASLTIGGATNYADSVKGRFTISEDSAKNTVYLQMNSLKPEDTAVYFCNAKSRLYPYDYWGQGTLVTVSSGAADYKDHDGDYKDHDIDYKDDDDKGAAHHHHHH
B4: T0170055A02 (VHH, not shown: small tags and cut ends)
VHH: EVQLVESGGGLVQPGGSLRLSCAASGDVHKINILGWYRQAPAKEREMVAHITIGDATDYADSAKGRFTISRDEAKNMVYLQMNSLKPEDTAVYFCRAYSRIYPYNYWGQGTLVTVSS
B5: T0170056G05 (VHH, not shown: small tags and cut ends)
VHH: B4 VHH with A23V, I33F, A42G, M47K, T52S, A56Q, A74S, Y98F, N105D
B6: T0170068G05 (VHH, not shown: small tags and cut ends)
VHH: VQLVEESGGGLVQPGGSLRLSCITSGETFKINIWGWYRQAPGKQRELVASLTIGGATNYADSVKGRFTISEDSAKNTVYLQMNSLKPEDTAVYFCNAKSRIYPYDYWGRGTQVTVSS
B7: T017000055 (bispecific antibody)
chain: EVQLVESGGGLVQPGGSLRLSCTFSGGTFSSYTMGWFRQAPGKEREFVAEVRWGGVTTYSNSLKDRFSISEDSVKNAVYLQMNSLKPEDTAVYYCAAVRQMYMTVVPDYWGQGTLVTVSSGGGGSGGGGSGGGGSGGGGSGGGGSGGGGSGGGGSEVQLVESGGGLVQPGGSLRLSCAASGDVHKINILGWYRQAPAKEREMVAHITIGDATDYADSAKGRFTISRDEAKNMVYLQMNSLKPEDTAVYFCRAYSRIYPYNYWGQGTLVTVSSGAADYKDHDGDYKDHDIDYKDDDDKGAAHHHHHH
B8: T017000076 (bispecific antibody)
chain: B7 chain with A178V, I188F, A197G, M202K, T207S, A211Q, A229S, Y253F, N260D
B9: T017000051 (bispecific antibody)
chain: EVQLVESGGGLVQPGGSLRLSCTFSGGTFSSYTMGWFRQAPGKEREFVAEVRWGGVTTYSNSLKDRFSISEDSVKNAVYLQMNSLKPEDTAVYYCAAVRQMYMTVVPDYWGQGTLVTVSSGGGGSGGGGSGGGGSGGGGSGGGGSGGGGSGGGGSEVQLVESGGGLVQPGGSLRLSCAASGEIGRINFYRWYRQAPGNQREVVATITIADKTDYADSAKGRFTISRDESRNMVYLQMSSLKPEDTAVYFCHAGSRLYPYDYWGQGTLVTVSSGAADYKDHDGDYKDHDIDYKDDDDKGAAHHHHHH
B10: T017000042 (bispecific antibody)
chain: EVQLVESGGGLVQPGGSLRLSCAASGDVHKINILGWYRQAPAKEREMVAHITIGDATDYADSAKGRFTISRDEAKNMVYLQMNSLKPEDTAVYFCRAYSRIYPYNYWGQGTLVTVSSGGGGSGGGGSGGGGSGGGGSGGGGSGGGGSGGGGSEVQLVESGGGLVQPGGSLRLSCTFSGGTFSSYTMGWFRQAPGKEREFVAEVRWGGVTTYSNSLKDRFSISEDSVKNAVYLQMNSLKPEDTAVYYCAAVRQMYMTVVPDYWGQGTLVTVSSGAADYKDHDGDYKDHDIDYKDDDDKGAAHHHHHH
B11: T017000074 (bispecific antibody)
chain: B10 chain with A23V, I33F, A42G, M47K, T52S, A56Q, A74S, Y98F, N105D
B12: T017000107 (protein)
chain: EVQLVESGGGLVQAGGSLRLSCAASGRTFSSYVMGWFRQATGKEREFVATIAWDSGSTYYADSVKGRFTISRDNAKNTVHLQMNSLKPEDTAVYYCAASYNVYYNNYYYPISRDEYDYWGQGTLVTVSSGGGGSGGGGSGGGGSGGGGSGGGGSGGGGSGGGGSEVQLVESGGGSVQAGGSLRLSCAASGDTYGSYWMGWFRQAPGKEREGVAAINRGGGYTVYADSVKGRFTISRDTAKNTVYLQMNSLRPDDTADYYCAASGVLGGLHEDWFNYWGQGTLVTVSSGGGGSGGGGSGGGGSGGGGSGGGGSGGGGSGGGGSEVQLVESGGGLVQPGGSLRLSCVASGDVHKINFLGWYRQAPGKEREKVAHISIGDQTDYADSAKGRFTISRDESKNMVYLQMNSLKPEDTAVYFCRAFSRIYPYDYWGQGTLVTVSSGAADYKDHDGDYKDHDIDYKDDDDKGAAHHHHHH
B13: T017000031 (bispecific antibody)
chain: EVQLVESGGGLVQPGGSLRLSCITSGETFKINIWGWYRQAPGKQRELVASLTIGGATNYADSVKGRFTISEDSAKNTVYLQMNSLKPEDTAVYFCNAKSRLYPYDYWGQGTLVTVSSGGGGSGGGGSGGGGSGGGGSGGGGSGGGGSGGGGSEVQLVESGGGLVQPGGSLRLSCTFSGGTFSSYTMGWFRQAPGKEREFVAEVRWGGVTTYSNSLKDRFSISEDSVKNAVYLQMNSLKPEDTAVYYCAAVRQMYMTVVPDYWGQGTLVTVSSGAADYKDHDGDYKDHDIDYKDDDDKGAAHHHHHH

Columns and labels:
[1] = target: human TCR(2XN9)/CD3 expressed on CHO-K1 cells (human); test: flow cytometry, CHO-K1 human TCR(2XN9)/CD3 cells
[2] = target: soluble recombinant human TCR alpha/beta (2XN9)-zipper protein (human); test: ELISA, coated soluble human TCR(2XN9)-zipper
[3] = target: human TCR(2IAN)/CD3 expressed on HEK293H cells (human); test: flow cytometry, HEK293H human TCR(2IAN)/CD3 cells
[4] = target: soluble recombinant human TCR alpha/beta (2XN9)-zipper protein (human); test: BLI (Octet RED384), immobilized human sTCR(2XN9)-zipper, 1:1 model
[5] = target: EGFR and CEACAM5 co-expressed on LS174T and LoVo cells (UniProt P00533); test: cell-based or functional assay
[6] = target: EGFR and CEACAM5 co-expressed on LS174T and LoVo cells (UniProt P00533); test: flow cytometry, LS174T cells
[7] = target: EGFR and CEACAM5 co-expressed on LS174T and LoVo cells (UniProt P00533); test: flow cytometry, LoVo cells
[8] = target: EGFR and CEACAM5 co-expressed on LS174T and LoVo cells (UniProt P00533); test: flow cytometry, LS174T cells; LS174T cells

Binder | EC50 [1] [nM] | MCF at 1 µM [3] [MCF] | also measured
B1 | 17 | – | –
B2 | 31 | 10000 | EC50 [2]: 52 nM; EC50 [3]: > 100 nM
B3 | 190 | – | –
B4 | – | 91200 | kon [4]: 49000 M⁻¹ s⁻¹
B5 | – | 86500 | kon [4]: 50000 M⁻¹ s⁻¹
B6 | 12 | 31200 | EC50 [2]: 16 nM; EC50 [3]: > 100 nM
B7 | 110 | – | –
B8 | 78 | – | –
B9 | 460 | – | –
B10 | 17 | – | –
B11 | 16 | – | –
B12 | – | – | IC50, xCELLigence human T cell mediated killing of LS174T cells, E:T 15, 30-40 h [5]: 10 nM; IC50, xCELLigence human T cell mediated killing of LS174T cells, E:T 15, 50-60 h [5]: 5.3 nM; IC50, xCELLigence human T cell mediated killing of LoVo cells, E:T 15, 30-40 h [5]: 0.3 nM; IC50, xCELLigence human T cell mediated killing of LoVo cells, E:T 15, 50-60 h [5]: 0.061 nM; Top [6]: 64600; EC50 [7]: 3.2 nM; Top [7]: 88600; EC50 [8]: 11 nM
B13 | 20 | – | –
